According to patent publication US10961289B2, “Small molecules blocking histone reader domains” (The University of Copenhagen, priority 2015, dated 2021):
Where no end group is shown, it is not given here.

molecular target: T1, TONSL ARD (amino acid 512-692 of TONSL of SEQ ID NO: 16) (Homo sapiens, UniProt Q96HA7); test: Native MS analysis of protein-peptide complexes; format: binding; settings: 10 μM TONSL-ARD, 50 mM NH4OAc pH 7.5
T1 construct: GST (N, cleaved yes); made in house; host or cells: E. coli BL21(DE3)-RIL
T1 sequence (Q96HA7 512-692): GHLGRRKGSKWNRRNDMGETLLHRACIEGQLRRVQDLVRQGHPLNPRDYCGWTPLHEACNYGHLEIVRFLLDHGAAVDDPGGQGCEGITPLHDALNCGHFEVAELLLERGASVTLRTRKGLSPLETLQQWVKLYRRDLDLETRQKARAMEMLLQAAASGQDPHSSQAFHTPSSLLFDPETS
Protocol: Various peptides were obtained including the peptides described in Examples 11, 12, 13, 14 and 15. If the peptide was in the form of a trifluoroacetate salt (TFA salt), it was desalted on a polymeric weak cation exchange sorbent (Strata X-CW, Phenomenex, Sartrouville, France): Dry peptide (1-3 μmol) were solubilized in 200 μL pure water (Sigma-Aldrich, Lyon, France). The pH of the solution was adjusted to 7-7.5 by addition of 1 mM aqueous ammonium hydroxide solution (solution freshly prepared from 20% concentrated ammonium hydroxide). The exchange column was conditioned with 1 mL methanol (Sigma-Aldrich, Lyon, France) followed by 1 mL water. The solution was injected and the column was washed twice with 500 μL pure water. Finally the peptide was eluted by gravity with 2 times 500 μL of a 20:80:5 acetonitrile/water/formic acid mixture. The elution fraction containing the expected peptide was identified by mass spectrometry. The TFA-free solution was freeze-dried to get a white solid. The solid was dissolved in 300 μL pure water and the solution was freeze-dried for a second time.
A stock solution of the peptide was prepared by adding 300 μL of pure water to the resulting solid and the concentration of the solution was measured by UV at a wavelength of 205 nm. The extinction coefficient for the corresponding peptide sequence was calculated using the Nick Anthis online protein parameter calculator script (http://nickanthis.com/tools/a205.html). The absence of TFA adducts was confirmed by mass spectrometry with infusion of the protein-peptide mixture at low acceleration voltage (Vc 25 V) in native conditions.
Purified TONSL ARD (i.e. amino acid 512-692 of TONSL of SEQ ID NO: 16) was buffer exchanged against 500 mM NH4OAc pH 7.5 using a NAP 5 column (NAP™-5, GE Healthcare). Bradford protein quantitation was performed on buffer exchanged protein. […]
The mass spectrometry (MS) analysis were carried out on an electrospray time-of-flight mass spectrometer (LCT, Waters, Manchester, UK) equipped with an automated chip-based nanoESI device (Triversa Nanomate, Advion Biosciences, Ithaca, N.Y.). […] Mass spectra were recorded using reduced cone voltage (Vc=50 V) and elevated interface pressure (Pi=5 mbar) which correspond to fine-tuned instrumental settings providing sufficient ion desolvation while preserving the integrity of weak non-covalent complexes in the gas phase. […]
The proportion of 1:1 stoichiometry complex is calculated according to the following equation: […]
To estimate the binding affinities (Kd) of peptides for TONSL-ARD, a mixture of protein/peptide was analyzed at a constant peptide to protein ratio with decreasing protein concentration until the lowest detection limit was reached. […]

Substance	% P1L1 (proportion of 1:1 stoichiometry protein-peptide complex)
KGGAKRHRKVLR-NH2 [Example 13]	89.9%
KGGAKRHAKVLR-NH2 [Example 14]	73.3%
KGGAARHRKVLR-NH2 [Example 15]	81.4%
AKRHRKVLR-NH2 [Example 12]	62.6%

molecular target: T2, TONSL ARD (Homo sapiens, UniProt Q96HA7); test: ITC of TONSL ARD binding to histone peptides; settings: ITC (FIG. 13); for H4K20me1/2 also peptide pull-downs
T2 construct: GST (N); made in house; host or cells: E. coli BL21(DE3)-RIL
T2 sequence (Q96HA7 512-692): T1 sequence (Q96HA7 512-692)
Protocol: All the ITC titrations were performed on a Microcal ITC 200 calorimeter at 25° C. […] The exothermic heat of the reaction was measured by 17 sequential 2.2 μl injections of the peptides (1.41 mM in buffer 20 mM Tris pH 7.5 and 0.5 M NaCl) into 200 μl of the TONSL ARD solution (145 μM in the same buffer), spaced at intervals of 150 s. The data were processed with Microcal Origin software and the curves were fit to a single […] binding model.

Substance	binding to TONSL ARD
H18W: histone H4 (residues 9-25) peptide with His18 mutated to Trp18 (GLGKGGAKRWRKVLRDN) [Example H18W]	totally disrupts binding with TONSL ARD
H4K20me2: histone H4 (residues 9-25) peptide with di-methylation on Lys20 (GLGKGGAKRHRKVLRDN) [Example H4K20me2]	incompatible with TONSL binding
H4 tail (9-25): unmodified histone H4 peptide, residues 9-25 (KGLGKGGAKRHRKVLRD; listed as Homo sapiens)	can bind TONSL ARD
H4K20me1: histone H4 (residues 9-25) peptide with mono-methylation on Lys20 (GLGKGGAKRHRKVLRDN) [Example H4K20me1]	incompatible with TONSL binding

molecular target: T3, TONSL acidic stretch and ARD (450-692) (Homo sapiens, UniProt Q96HA7); test: ITC analysis of TONSL acidic stretch and ARD with histone peptides; format: binding; settings: ITC (FIG. 35)
T3 construct: ITC analysis of TONSL acidic stretch and ARD (aa. 450-692); made in house; host or cells: E. coli BL21(DE3)-RIL
T3 sequence (Q96HA7 450-692): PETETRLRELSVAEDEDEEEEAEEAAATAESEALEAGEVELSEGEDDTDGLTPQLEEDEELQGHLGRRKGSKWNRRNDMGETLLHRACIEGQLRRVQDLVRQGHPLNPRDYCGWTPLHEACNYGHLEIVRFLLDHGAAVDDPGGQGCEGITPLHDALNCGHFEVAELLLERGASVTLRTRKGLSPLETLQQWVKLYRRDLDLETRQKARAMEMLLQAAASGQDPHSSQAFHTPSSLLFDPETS

Substance	binding to TONSL (450-692)
H3K9me1 (1-21): histone H3K9me1 (aa. 1-21) peptide	does not bind
H4 tail (9-25): unmodified histone H4 peptide, residues 9-25 (KGLGKGGAKRHRKVLRD; listed as Homo sapiens)	recognizes
